Data set [1] addresses GST-TCP20 (Arabidopsis thaliana, UniProt Q9LSD5 1-314). The data set is described as follows: competition; 20x/40x unlabelled mTBS against labelled TBS; 35 mM KCl, 15 mM HEPES pH 7.5, 0.4 mM EDTA, 6% glycerol, 50 ng/ul poly(dI-dC), 0.05 pmol probe, room temperature, 10 min. To be noted: protein: recombinant; tags: GST (N-terminal, pET42a); chain copies: 2; blunt.
Data set [2] deals with GST-TCP22 (Arabidopsis thaliana, UniProt Q9C7G4 1-375). Described as above. The note with it: protein: recombinant; tags: GST (N-terminal, pET42a); chain copies: 2; blunt.

Here are results for one molecule from publication PMC5065627, “LWD–TCP complex activates the morning gene CCA1 in Arabidopsis”.

GST-TCP22, sequence (Q9C7G4 whole entry): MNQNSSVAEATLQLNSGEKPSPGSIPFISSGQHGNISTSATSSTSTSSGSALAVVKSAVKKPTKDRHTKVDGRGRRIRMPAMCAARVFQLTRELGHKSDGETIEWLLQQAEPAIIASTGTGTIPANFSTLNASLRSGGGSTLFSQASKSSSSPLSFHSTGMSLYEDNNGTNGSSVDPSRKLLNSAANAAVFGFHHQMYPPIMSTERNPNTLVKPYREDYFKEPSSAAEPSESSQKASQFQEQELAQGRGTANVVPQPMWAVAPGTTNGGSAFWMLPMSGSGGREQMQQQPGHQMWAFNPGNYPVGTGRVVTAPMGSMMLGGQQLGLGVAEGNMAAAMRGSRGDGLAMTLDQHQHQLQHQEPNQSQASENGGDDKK
GST-TCP20, sequence (Q9LSD5 whole entry): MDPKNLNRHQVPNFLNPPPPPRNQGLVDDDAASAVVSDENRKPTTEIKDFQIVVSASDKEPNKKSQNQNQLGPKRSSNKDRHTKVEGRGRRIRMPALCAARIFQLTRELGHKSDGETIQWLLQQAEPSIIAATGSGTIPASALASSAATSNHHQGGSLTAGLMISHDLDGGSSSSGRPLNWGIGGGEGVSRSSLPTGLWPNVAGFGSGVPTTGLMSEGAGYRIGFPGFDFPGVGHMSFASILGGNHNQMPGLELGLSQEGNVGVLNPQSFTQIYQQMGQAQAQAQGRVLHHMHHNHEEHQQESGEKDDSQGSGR

B1: mTBS 50-bp CCA1 promoter competitor (dsDNA)
DNA 1: GAGATTAACGATCTTAAGTATTGAAACATAGATCAAGATATTATAACGAA
DNA 2: TTCGTTATAATATCTTGATCTATGTTTCAATACTTAAGATCGTTAATCTC
As for B1, the binding result in data set [1] and in data set [2] was “no binding” in each case.
